The values that follow come from IntAct's records for PubMed 16873060.

Sequences and labels used below:
B1: Protein PML (Homo sapiens), P29590 (parent)
chain: MEPAPARSPRPQQDPARPQEPTMPPPETPSEGRQPSPSPSPTERAPASEEEFQFLRCQQCQAEAKCPKLLPCLHTLCSGCLEASGMQCPICQAPWPLGADTPALDNVFFESLQRRLSVYRQIVDAQAVCTRCKESADFWCFECEQLLCAKCFEAHQWFLKHEARPLAELRNQSVREFLDGTRKTNNIFCSNPNHRTPTLTSIYCRGCSKPLCCSCALLDSSHSELKCDISAEIQQRQEELDAMTQALQEQDSAFGAVHAQMHAAVGQLGRARAETEELIRERVRQVVAHVRAQERELLEAVDARYQRDYEEMASRLGRLDAVLQRIRTGSALVQRMKCYASDQEVLDMHGFLRQALCRLRQEEPQSLQAAVRTDGFDEFKVRLQDLSSCITQGKDAAVSKKASPEAASTPRDPIDVDLPEEAERVKAQVQALGLAEAQPMAVVQSVPGAHPVPVYAFSIKGPSYGEDVSNTTTAQKRKCSQTQCPRKVIKMESEEGKEARLARSSPEQPRPSTSKAVSPPHLDGPPSPRSPVIGSEVFLPNSNHVASGAGEAEERVVVISSSEDSDAENSSSRELDDSSSESSDLQLEGPSTLRVLDENLADPQAEDRPLVFFDLKIDNETQKISQLAAVNRESKFRVVIQPEAFFSIYSKAVSLEVGLQHFLSFLSSMRRPILACYKLWGPGLPNFFRALEDINRLWEFQEAISGFLAALPLIRERVPGASSFKLKNLAQTYLARNMSERSAMAAVLAMRDLCRLLEVSPGPQLAQHVYPFSSLQCFASLQPLVQAAVLPRAEARLLALHNVSFMELLSAHRRDRQGGLKKYSRYLSLQTTTLPPAQPAFNLQALGTYFEGLLEGPALARAEGVSTPLAGRGLAERASQQS

This test covers variants of B1. The settings on record: with csk21_human CSNK2A1, P68400.
Chain of csk21_human CSNK2A1, P68400 (P68400 whole entry, looked up): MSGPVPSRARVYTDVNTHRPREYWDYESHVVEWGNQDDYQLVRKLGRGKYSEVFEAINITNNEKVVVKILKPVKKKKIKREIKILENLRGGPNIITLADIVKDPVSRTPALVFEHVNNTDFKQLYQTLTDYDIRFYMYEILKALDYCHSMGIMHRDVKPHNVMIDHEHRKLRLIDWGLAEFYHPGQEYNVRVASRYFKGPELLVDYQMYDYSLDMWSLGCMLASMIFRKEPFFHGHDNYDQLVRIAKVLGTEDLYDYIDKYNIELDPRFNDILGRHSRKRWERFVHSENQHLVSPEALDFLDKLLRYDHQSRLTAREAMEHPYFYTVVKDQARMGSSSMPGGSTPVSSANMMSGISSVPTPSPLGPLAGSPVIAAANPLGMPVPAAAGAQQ
Take S518A: the “effect of a mutation on the interaction” value is “decreasing interaction”.
